Results published in patent publication US20110150888A1 (Amgen, published 2011).
Where no end group is shown, it is not given here.

T1: mouse hepcidin (mouse, UniProt Q9EQ21 59-83)
T1 peptide (looked up): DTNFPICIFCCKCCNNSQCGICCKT

B1: antibody 1S3 (antibody, human IgG2, lambda, V domains shown)
VH: QVQLVESGGGVVQPGRSLRLSCAASGFTFSSYGMHWVRQAPGKGLEWVAVIWYAESNKYYADSVKGRFTISRDNSKNTLYLQMNSLRAEDTAVYYCARAQEGIAPDAFDIWGQGTMVTVSS
VL: YELTQPPSVSVSPGQTATITCSGDKLGERYASWYQQRPGQSPVLVIYQDIKRPSGIPERFSGSNSGNTATLTISGTQAMDEADYFCQAWYSSTNVLFGGGTKLTVLG
notes: Human antibody
B2: antibody 23F11 (antibody, V domains shown)
VH: QVQLQQSGPGLVKPSQTLSLTCAISGDSVSSNSAAWNWIRQSPSRGLEWLGRTYYRSKWFNDYAVSVQSRITINPDTSKNQFSLQLNSVTPEDTAVYYCARGIVFSYAMDVWGQGTTVTVSS
VL: NFMLTQPHSVSESPGKTVTISCTRSSGSIASYYVQWYQQRPGSSPTTVIYEDSQRPSGVPDRFSGSIDSSSNSASLTISGLKTEDEADYYCQSYDSSNVVFGGGTKLTVL
notes: Human antibody
B3: antibody 1S1 (antibody, human IgG2, kappa, V domains shown)
VH: QVQLVQSGDEVKKPGASVKVSCKASGYTFIKYGISWVRQAPGQGLEWMGWIGAFNGNTDYARNLQARVTMTTDTSTSTAYMELRSLRSDDTAVYYCAREGWNDDYFSGLDVWGQGTTVTVSS
VL: EIVLTQSPGTLSLSPGERATLSCRASQSVSSNYLAWYQQKPGQAPRLLIYGASSRATGIPDRFSGSGSGTDFTLIISRLEPEDFVVYYCQQYGSSLTFGGGTKVEIKR
notes: Human antibody; also called Ab 1S1
B4: antibody 18B11 (antibody, V domains shown)
VH: QVQLQQWGAGPLKPSETLSLTCAVYNGSFSGYYWSWIRQPPGKGLEWIGDINHSGNTKYNPSLKSRVTISVDTSKNQFSLKLSSVTAADTAVYYCARGDFWSGFDWFDPWGQGTLVTVSS
VL: QSALTQPASVSGSPGQSITISCTGTSSNVGSYNLVSWYQQHPGKAPKLMISEVSKRPSGLSNRFSGSKSGNTASLTISGLQAEDEADYYCCSYAGSSTLIFGGGTKLTVL
notes: Human antibody from Xenomouse IgG2 or IgG4 mice; also called 181311
B5: human hepcidin (mature, 25 amino acids) (peptide)
peptide: DTHFPICIFCCGCCHRSKCGMCCKT
modifications: disulfide (positions not given here); also: mono-biotinylated in some assays, site not given here
notes: the form is named in each assay field; also called rhuHepc; rhHepc
B6: murine antibody 2.7 (antibody, V domains shown)
VH: QIQLVQSGPELKKPGETVKISCKASGYTFTTYGMSWVKQAPGKGLKWMGWINTYSGVPTYADDFKGRFAFSLETSASTAYLQINNLKNEDTATYFCGRDHYYGEVAYWGQGTLVTVSA
VL: DIVLTQSPASLAVSLGQRATISCRASESVDSYGNSFMHWYQQKPGQPPKLLIYRASNLESGIPARFSGSGSRTDFTLTINPVEADDVATYYCHQSNEEYTFGGGTKLEIK
notes: Murine monoclonal antibody; murine IgG1 was used as its isotypic control; also called Ab2.7; Ab 2.7

Tests used:
[1] = biological target: B5; assay: BIAcore, recombinant human hepcidin immobilised on a CM5 chip, 50 nM antibody bound at pH 7.4, dissociation buffers of pH 7.4, 6 and 5.5 (curves not labelled by pH)
Protocol: (§1) Off-rate analysis of dissociation at different pHs was also performed. A slow off-rate is expected to predict increased binding interaction over a longer period of time, while a faster off-rate is expected to predict decreased binding interaction. For example, a faster off-rate at lower pH is expected to predict greater release of antigen at lower pH. Solution equilibrium binding analysis was performed using BIAcore to study the off-rates of antibodies 1S1, 1S3, 2.7, 18B11, 23F11 and 26F11 with recombinant human hepcidin (SEQ ID NO: 9).
Immobilization of recombinant human hepcidin (rhuHepc) to a BIAcore sensor chip surface was performed according to manufacturer's instructions at a flow rate 10 μL/min of running buffer (DPBS: Dulbecco's Phosphate Buffer Salinel X, no CaCl or MgCl, with 0.005% Biacore surfactant P-20). The carboxylated matrix of the sensor chip was first activated with a 60 μL injection of a mixture containing 0.2 M EDC(N-ethyl-N-(dimethylamine-propyl)carbodiimide in water, from BIAcore) and 0.05M NHS (N-hydroxysuccinimide in water, from Biacore). 55 μL of recombinant human hepcidin (1 μg/ml in 10 mM Na-acetate pH4.0) was injected to immobilize onto the sensor chip. The excess reactive groups of the sensor chip were deactivated with an injection of 60 μL of ethanolamine (1.0M, from Biacore).
After rhuHepc was immobilized on the CM5 chip with low density, 50 nM of antibodies 1S1, 1S3, 2.7, 18B11, 23F11 and 26F11 were injected over and bound the rhuHepc surface at pH 7.4. Dissociation buffers with pH 7.4, pH6 and pH 5.5 were run over the bound surface. The dissociation curves were obtained.

[2] = biological target: B5; assay: sandwich ELISA built from 1S1 and 23F11 (one curve for the pair of antibodies), hepcidin titrated; the axis gives hepcidin levels before a 50-fold pre-dilution
[3] = biological target: B5; assay: BIAcore, rhuHepc immobilised on CM5 chip, dissociation buffers of pH 7.4, 6 and 5.5; dissociation buffer pH 7.4
Protocol: as §1
Immobilization of recombinant human hepcidin (rhuHepc) to a BIAcore sensor chip surface was performed according to manufacturer's instructions at a flow rate 10 μL/min of running buffer (DPBS: Dulbecco's Phosphate Buffer Salinel X, no CaCl or MgCl, with 0.005% Biacore surfactant P-20). The carboxylated matrix of the sensor chip was first activated with a 60 μL injection of a mixture containing 0.2 M EDC(N-ethyl-N-(dimethylamine-propyl)carbodiimide in water, from BIAcore) and 0.05M NHS (N-hydroxysuccinimide in water, from Biacore). 55 μL of recombinant human hepcidin (1 μg/ml in 10 mM Na-acetate pH4.0) was injected to immobilize onto the sensor chip. The excess reactive groups of the sensor chip were deactivated with an injection of 60 μL of ethanolamine (1.0M, from Biacore). […]

[4] = biological target: B5; assay: antibody at 1:250 dilution; KinExA / BIAcore named in the paragraph
[5] = biological target: B5; assay: ELISA, mono-biotinylated human hepcidin on Neutravidin plate, pH 7.4
Protocol: (§2) Differential pH binding of the antibodies listed above in Table 3 was then determined by ELISA. 50 μL of Neutravidin (Pierce) at 8 μg/mL in 1×PBS was coated upon a Nunc Maxisorp 384-well plate, and incubated at 37° C. for 1 hr. After blocking the wells with 0.1% BSA/PBS/0.05% Tween20 for 1 hour at room temperature, plates were washed six times with PBS/0.05% Tween20. 25 μL of mono-biotinylated hepcidin at 50 ng/mL in 0.1% BSA/PBS/0.05% Tween20 was added to the 384-well plate, and incubated at room temperature for 1 hour. The plates were next washed six times with PBS/0.05% Tween20. Starting hepcidin antibody concentrations were normalized to 1 μg/mL for pH 5.5 and 6.0 conditions and to 100 ng/mL for pH 7.4 conditions. The hepcidin antibodies were serially diluted 3-fold in PBS/1% NFDM pH 7.4 and 4-fold in PBS/1% NFDM pH 6.0 and 5.5. The dilutions and titrations were performed in polypropylene 96-well dilution plates, and then were transferred in duplicate to a Neutravidin-coated 384-well plate. The biotinylated hepcidin and antibodies were incubated for 2 hours at room temperature. The plate was next washed six times with PBS/0.05% Tween20. 25 μL it of goat anti-huIgG-horseradish peroxidase at a 1:7000 dilution in 0.1% BSA/PBS/0.05% Tween20 was next added to each well of the assay plate. The plate was finally washed six times in PBS/0.05% Tween20. Enhanced K-Blue 3,3′,5,5′-Tetramethylbenzidine (TMB) Substrate (Neogen) was added and the reaction stopped using 1 M H₃PO₄ after 10 minutes of incubation at room temperature. The absorption was measured at 450 nm on a plate reader. Binding data were analyzed by non-linear regression analysis (sigmoidal dose-response, variable slope) to generate EC₅₀ values using GraphPad Prism® software. […] Double combinations of these mutants were made.

[6] = biological target: B5; assay: ELISA, mono-biotinylated human hepcidin on Neutravidin plate, pH 6.0
Protocol: as §2

[7] = biological target: B5; assay: KinExA solution equilibrium, human hepcidin-coated beads
Protocol: SA-Sepharose beads were pre-coated with biotinylated human hepcidin (SEQ ID NO: 9) and blocked with BSA according to manufacturer's instructions. Antibodies and hepcidin were diluted in PBS/0.1% BSA/0.05% NaN₃ buffer. Fixed concentrations of antibodies 15E1, 15E1 W52H, 15E1 A99H, 15E1 N521-1, 15E1 A107H and 18B11 were incubated with various concentrations of human hepcidin at room temperature for 8 hours before being run through the human hepcidin-coated beads. The amount of the bead-bound antibody was quantified by fluorescently (Cy5)-labeled goat anti-murine-IgG (H+L) antibody (Jackson Immuno Research, West Grove, Pa.). The binding signal is proportional to the concentration of free antibody at equilibrium. Dissociation equilibrium constant (KD) was obtained from nonlinear regression of the competition curves using a dual-curve one-site homogeneous binding model (KinExATM Pro software).

mouse hepcidin = biological target: T1, mouse hepcidin; assay: competition ELISA
murine antibody 2.7 [8] = biological target: B6; assay: competitive binding assay, luminescence, standards in rabbit serum: unlabelled hepcidin against biotinylated human hepcidin (0.25 nM) for Ab2.7
Protocol: (§3) Hepcidin levels were determined using hepcidin standards of varying concentrations (from 1.4-300 ng/ml) spiked into buffer (5% BSA:I-block), rabbit serum, or pooled human serum. Hepcidin was added to equal volumes of 40 ng/mL of Ab2.7 and incubated for 120 minutes. 25 μl/well of mixed solution was added to Black half area plates coated with 1-2 μg/mL G×M capture antibody. 25 μL/well of biotinylated hepcidin was added at 0.25 nM. The plate was covered with plate film sealer and incubated at room temperature (25° C.) on a plate shaker at around <200 RPM for around 60 minutes. The plate was washed and then 50 μL/well of Poly horseradish peroxidase amplification reagent at 1:2000 was added. The plate was allowed to sit for 30 minutes and was then washed with a plate washer using PBS or KPL buffer 6 times. The plate was patted dry and a luminescent substrate (Femto or Pico) was quickly added. The plate was read with luminometer (ex: Lmax 340) for 1 second using Femto or Pico Substrate. […] (FIG. 18).

murine antibody 2.7 [9] = biological target: B6; assay: competitive binding assay, luminescence, standards in buffer (5% BSA: I-block): unlabelled hepcidin against biotinylated human hepcidin (0.25 nM) for Ab2.7
Protocol: as §3

murine antibody 2.7 [10] = biological target: B6; assay: competitive binding assay, luminescence, standards spiked into pooled human serum (endogenous hepcidin present, not counted on the axis): unlabelled hepcidin against biotinylated human hepcidin (0.25 nM) for Ab2.7
Protocol: as §3

Binder: B1
- binding result [1]: binds

Binder: B2
- EC50 (read off the curve) [2]: ~100 ng/mL

Binder: B3
- EC50 (read off the curve) [2]: ~100 ng/mL

Binder: B4
- koff [3]: > 0.01 s⁻¹
- fold reduction in affinity at pH 6 compared to pH 7.4 [4]: ~10 fold
- EC50 [5]: 2.7 ng/mL
- EC50 [6]: 0.244 µg/mL
- Kd [7]: 7.4 nM
- binding result (mouse hepcidin): no binding

Binder: B5
- IC50 (read off the curve) (murine antibody 2.7 [8]): ~7 ng/mL
- IC50 (read off the curve) (murine antibody 2.7 [9]): ~8 ng/mL
- IC50 (read off the curve) (murine antibody 2.7 [10]): ~10 ng/mL

Binder: B6
- binding result [1]: binds
